# How the values were obtained:
# Assay in all cases: cell_activity
# [1] = system: TALENbar86 monomer 2 (artificial); details: tobacco protoplasts, as pair with monomer 1, 13 nt spacer, foreign DNA pTIB235; printed half-site differs from full site as printed (AGCACGGTCAACTTCCCT)
# [2] = system: TALENbar334 monomer 1 (artificial); details: tobacco protoplasts, as pair with monomer 2, 12 nt spacer, foreign DNA pTIB235; 94.35 with pTCV224, 94.09 with pTCV225
# [3] = system: TALENbar86 monomer 1 (artificial); details: tobacco protoplasts, as pair with monomer 2, 13 nt spacer, foreign DNA pTIB235; 19.6 with pTCV224, 25.6 with pTCV225
# [4] = system: bar meganuclease (cleaving at bar position 479) (artificial); details: tobacco protoplasts, targeted insertion with repair DNA pTCV225 (3/164 calli)
# [5] = system: TALENbar334 monomer 2 (artificial); details: tobacco protoplasts, as pair with monomer 1, 12 nt spacer, foreign DNA pTIB235; 94.35 with pTCV224, 94.09 with pTCV225
sequence,measurement,setting,value
ACGGAAGTTGACCGTGCT (double strand) [bar86 half-site 2],activity,[1],6.25 % mutation
CCACGCTCTACACCCACC (double strand) [bar334 half-site 1],activity,[2],76 % mutation
CTGCACCATCGTCAACCA (double strand) [bar86 half-site 1],activity,[3],6.25 % mutation
GGGAACTGGCATGACGTGGGTTTC (double strand) [bar meganuclease site],activity,[4],1.8 % TSI
TGAAGCCCTGTGCCTCCA (double strand) [bar334 half-site 2],activity,[5],76 % mutation
